The results in this text go back to US20210017532A1 (INSTITUTE OF GENETICS AND DEVELOPMENTAL BIOLOGY CHINESE …, published 2021).

Read-outs that look alike come from different tables or passages of the source.

Data set [1] deals with His-UBQ10.
In the next data set the target is T1, Flag-OsSPL14, Q7EXZ2.
T1 chain: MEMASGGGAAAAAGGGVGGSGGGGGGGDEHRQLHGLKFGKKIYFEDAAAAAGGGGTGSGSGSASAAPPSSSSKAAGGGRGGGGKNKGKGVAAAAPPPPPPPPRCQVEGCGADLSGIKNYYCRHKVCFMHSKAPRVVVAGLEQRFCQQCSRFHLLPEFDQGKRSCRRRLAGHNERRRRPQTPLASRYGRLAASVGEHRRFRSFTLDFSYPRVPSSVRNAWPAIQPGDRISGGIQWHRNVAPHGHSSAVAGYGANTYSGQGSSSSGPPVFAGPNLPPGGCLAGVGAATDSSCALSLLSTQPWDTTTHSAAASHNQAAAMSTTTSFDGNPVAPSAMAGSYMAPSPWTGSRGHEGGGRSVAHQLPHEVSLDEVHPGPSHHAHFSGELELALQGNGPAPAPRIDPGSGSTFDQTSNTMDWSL

Data set [2] concerns the target T2, recombinant GST-OsSPL14 fusion protein, Q7EXZ2.
T2 chain: T1 chain

For another data set, the target named is T3, OsSPL14 (rice, UniProt Q7EXZ2 1-417).
T3 construct: also called SBP-domain transcription factor OsSPL14
T3 sequence (looked up): T1 chain
Nature of the data set: summary sentence of Example 1.

A further data set deals with T4, OsUBC13 (rice).
T4 construct: Used for sentences that name OsUBC13 in general or cover several assay formats; also called E2 ubiquitin-conjugating protein
T4 chain: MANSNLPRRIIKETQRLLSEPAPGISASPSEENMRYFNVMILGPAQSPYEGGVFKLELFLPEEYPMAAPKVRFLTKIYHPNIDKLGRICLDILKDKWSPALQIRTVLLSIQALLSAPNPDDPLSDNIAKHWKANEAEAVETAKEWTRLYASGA
Nature of the data set: summary sentence of Example 1.

The target in data set [3] is T5, full length OsUBC13 in pGADT7 (rice).
T5 construct: Yeast two-hybrid prey; not shown: fusion partner encoded by vector pGADT7
T5 chain: T4 chain
Nature of the data set: yeast two-hybrid (pGBKT7 / pGADT7, strain AH109). On the procedure:
Yeast two-hybrid assays. Yeast two-hybrid assays were performed as described elsewhere^{14, 21}. The full length OsOTUB1.1 cDNA and an OsOTUB1 C-terminal fragment were amplified from ZH11 cDNA and inserted into pGBKT7 (Takara Bio Inc.), while the full length OsUBC13 cDNA and an OsSPL14 C-terminal fragment were inserted into pGADT7 (Takara Bio Inc.). Each of these plasmids was validated by sequencing before being transformed into yeast strain AH109. The required β-galactosidase assays were performed according to the manufacturer's (Takara Bio Inc.) protocol. Cells harboring either an empty pGBKT7 or an empty pGADT7 were used as the negative control. The entire OsOTUB1 sequence or a C-terminal fragment were used as the bait to screen a cDNA library prepared from poly(A)-containing RNA isolated from rice young panicles (<0.2 cm in length). The experimental procedures for screening and plasmid isolation followed the manufacturer's (Takara Bio Inc.) protocol.

Data set [4] addresses His-UBQ10. This is another data set of the same source.
In data set [5] the target is linear K48-linked tetra-ubiquitin (Boston Biochem).
The target of data set [6] is linear K63-linked tetra-ubiquitin (Boston Biochem).
Data set [7] has as its target T6, YFP-fragment-tagged OsUBC13 (BiFC construct) (rice).
T6 construct: BiFC in rice protoplasts; not shown: YFP fragment from pSY-735-35S-cYFP-HA or pSY-736-35S-nYFP-EE
T6 chain: T4 chain
Nature of the data set: BiFC in rice protoplasts.

The target of data set [8] is T7, N-terminus of YFP-tagged deleted version of OsSPL14 (rice, UniProt Q7EXZ2 1-417).
T7 construct: not shown: N-terminal fragment of YFP
T7 sequence (looked up): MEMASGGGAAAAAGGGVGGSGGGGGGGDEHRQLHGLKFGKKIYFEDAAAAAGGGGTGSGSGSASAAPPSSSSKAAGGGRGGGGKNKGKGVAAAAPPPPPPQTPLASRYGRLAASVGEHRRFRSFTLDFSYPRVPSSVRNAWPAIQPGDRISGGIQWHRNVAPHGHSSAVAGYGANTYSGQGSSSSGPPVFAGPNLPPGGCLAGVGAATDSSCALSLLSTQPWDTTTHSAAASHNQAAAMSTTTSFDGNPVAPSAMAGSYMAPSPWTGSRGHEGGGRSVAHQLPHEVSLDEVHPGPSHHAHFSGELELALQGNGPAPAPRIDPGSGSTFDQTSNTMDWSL
Nature of the data set: BiFC in rice protoplasts with deleted versions of OsSPL14. From the text: (a) BiFC assays. The N-terminus of YFP-tagged OsSPL14, SBP-domain or a deleted version of OsSPL14 was co-transformed into rice protoplasts along with the C-terminus of YFP-tagged OsOTUB1.1. Panels (from left to right): DAPI staining, YFP signal, differential interference contrast, merged channel. Scale bar: 10 μm. (b) Co-immunoprecipitation of OsOTUB1.1-GFP and OsSPL14. IB, Immunoblot; IP, immunoprecipitation. (c) Plant morphology. Scale bar: 20 cm. (d) Panicle morphology. Scale bar: 5 cm. (e) OsSPL14 transcript abundance. Transcription relative to the level of the ZH11 plants set to be one. Data shown as mean±s.e.m. (n=3). (f) The number of tillers per plant. (g) The number of grains per panicle. (h) Culm diameter. All phenotypic data were measured from the field-grown plants under normal cultivation conditions. Data in f-h shown as mean±s.e.m. (n=120). The presence of the same lowercase letter denotes a non-significant difference between means (P<0.05).

As for MBP-WTG1^D68E;C71S;H267R, the “in vitro deubiquitination assay (cleavage of His-UBQ10, SDS-PAGE and anti-His blot)” value in the data set with His-UBQ10 [1] was “MBP-WTG1^wtg1-1, MBP-WTG1^D68E;C71S;H267R and MBP did not cleave His-UBQ10”.

B1: Myc-OsOTUB1.1 (protein)
chain: MGGDYYHSCCGDPDPDLRAPEGPKLPYVGDKEPLSTLAAEFQSGSPILQEKIKLLGEQYDALRRTRGDGNCFYRSFMFSYLEHILETQDKAEVERILKKIEQCKKTLADLGYIEFTFEDFFSIFIDQLESVLQGHESSIGAEELLERTRDQMVSDYVVMFFRFVTSGEIQRRAEFFEPFISGLTNSTVVQFCKASVEPMGEESDHVHIIALSDALGVPIRVMYLDRSSCDAGNISVNHHDFSPEANSSDGAAAAEKPYITLLYRPGHYDILYPK
Consider B1, for which, in the data set with Flag-OsSPL14, Q7EXZ2, the “accumulation of Flag-OsSPL14 in rice protoplasts (immunoblot)” value is on record as “Myc-OsOTUB1 promoted the degradation of Flag-OsSPL14 only in the presence of either WT-, K63O- or K48R-linked ubiquitins” and the “ubiquitination of Flag-OsSPL14 in rice protoplasts (anti-Flag IP, anti-HA blot)” value is listed as “In the presence of Myc-OsOTUB1.1, the titer of ubiquitinated Flag-OsSPL14 was clearly decreased in the presence of either K48R or K63O mutations, but it remained unaffected by the presence of either K48O or K63R mutations”.

B2: recombinant His-OsOTUB1 fusion protein (protein)
chain: B1 chain
For B2, the “degradation of GST-OsSPL14 in young panicle lysates (anti-GST western blot over time)” value in data set [2] is recorded as “the degradation of GST-OsSPL14 was accelerated in lysates made from ZH11-npt1 panicles in the presence of His-OsOTUB1”.

B3: OsOTUB1 (enzyme)
chain: B1 chain
notes: Used for sentences that name OsOTUB1 in general or cover several assay formats; also called NPT1; DEP5
In the case of B3, the binding result in the data set with OsSPL14 and with OsUBC13 was “binds” in each case.

B4: full length OsOTUB1.1 in pGBKT7 (enzyme)
chain: B1 chain
notes: Yeast two-hybrid bait; not shown: fusion partner encoded by vector pGBKT7
As to B4, the binding result in [3] was “binds”.

B5: MBP-WTG1 (protein)
chain: B1 chain
For B5, the “in vitro deubiquitination assay (cleavage of His-UBQ10, SDS-PAGE and anti-His blot)” value with His-UBQ10 [4] is listed as “MBP-WTG1 was capable of cleaving His-UBQ10”.

B6: recombinant OsOTUB1.1 of the tetra-ubiquitin cleavage assay (protein)
chain: B1 chain
Turning to B6, the “cleavage of linear Lys48-linked tetra-ubiquitin (western blot, anti-ubiquitin)” value in [5] is “it showed a strong cleavage activity when presented with Lys48-linked tetra-ubiquitin”. Besides, the “cleavage of linear Lys63-linked tetra-ubiquitin (western blot, anti-ubiquitin)” value in data set [6] is recorded as “it also displayed a moderate level of activity when presented with the Lys63-linked forms”.

B7: C-terminus of YFP-tagged OsOTUB1.1 (enzyme)
chain: B1 chain
notes: BiFC construct expressed in rice protoplasts; also called cYFP-OsOTUB1; cYFP-OsOTUB1.1; not shown: C-terminal fragment of YFP from vector pSY-735-35S-cYFP-HA
In the case of B7, the binding result is listed as “binds” in data set [7] and “no binding” in [8].
